# Assay: soluble fraction after stress (log2 fold change); higher = more stays soluble; pooled small domains, quantitative proteomics
# Conditions: stress: pH 4
# Method in brief: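 High-throughput quantitative proteomics was run on pooled custom libraries of small protein domains following pH 4 stress. Fold changes are on a log2 scale; higher values mean more of a domain remained soluble. The fold change in soluble amount is taken as a measure of aggregation propensity.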
row,Sequence,soluble fraction (log2)
1,HMTSLAGIERFLASGAIAGVGEAMAHRLVQKFGKETLEIIEKKPSRLTEVAGVGKKTAAKIHASYMEK,0.0893
2,HMTSLGLEGLVNTTAIATSDLRPSGWALAGERKIFVVSEGEFIDNGDKIRILTVDGNRIVVRKETNK,-0.189
3,HMTSLTSDEEQIINVLRAEESVYINALATKSKIPLQKLLGLLIQLEFKGLIHSLPGSHYKIV,-0.473
4,HMTSNIIIVPNVVGMTKEQATAALAAAGLNIKLSGVETTDTAAVAVKQKPSANTKVEEGSVVTVEFDLK,-1.35
5,HMTSPKSRIVSALLASPSRPEELAMRLGEDILTLMRTLTDFEASGIIQRLPDGRYTPTREYHLGLVDK,-0.534
6,HMTSPRRLYALIVEHVGKDGVMHRSDVENVLAKVESEMDVDDLLDQLEINGTIIRRQDGTWQLL,-1.66
7,HMTSRFITTEEGTLYVDADGRKVSGWQTIDGSRYYFDEHGIRQSGTIEVNGETYVLDEDGVL,-1.51
8,HMTSRWEIGYNVAKKYYDEHGNLDVERAVYDNFELKKWLNTQRYKNSAGTLAEKYKIKLDELGMNWER,-0.00494
9,HMTSSQLYLIEEDMEGERLDAFLAEVIADLSRTAIKDLISNGRVLVDGQARKPSYRVKEGEQVLIHVPEAR,-1.31
10,HMTSVFQNSDGTWGHLTKTVNPLIYTIEYGRRTGFSSREEAEESYQRSLTSYQDQLSKLKKERD,0.223
11,HMTSVPGTVVTNANLRGGPGTNYPIVGKAPAGTTVNVVESTADRTWYYLDTGSWIAAFLVKLS,-0.229
12,HMTSVRVPVKKEIWFWAIKESQRDLNEILARFPKMDKWINQEENPTFNQLEKVAKFLRVPFGYMFLDKPPK,0.332
13,HMTTETGTVKWFNEGKGFGFIAPDGGGKDLFAHFKEIQGSGFKTLTENQRVQFEVTQGQKGPQASNIRTL,-0.183
14,HMTTHEQVAILRRELNGLVGAWHHRTGQAHGVTHSKLRKELGGPPAAVASAAQLSARIEKIRQWAT,-0.0306
15,HMTTIAQMTGPQRAAVILLVLGEDHGRTIWQEFDDDEIRIITRAMAELGTVDADEVERLMLDFVGKLSS,-1.75
16,HMTTIAQNISNYRTRANMTQQQVADKLSVSHHTVSKWELGINTPSVEDMQKLAQVFGVTITELVVD,-0.662
17,HMTTIHVDPEKISKIIGPGGKTIKKIVEETGAKIDIEEDGRVYIAAVNSEEAAKAIDMINGI,-0.274
18,HMTTIPAGRQQYILSLIRREGTVTVSRLAQELEVSELTIRRDLDQMAARNLVERTHGGATERR,≥ 0.43
19,HMTTKEEAAYQAIRSAIIDGELKPGQSVTIRDLASRFDLGRTPITDAMKHLALDGWLETTTGVGTRV,-0.15
20,HMTTLAADFNSDGRVDIGDLSILAGNWGKSRTNEVDFNKYGDADYNGRIDIIDLSILATQFGQTDNSN,-0.142
21,HMTTLDTVARQLRDRIREQLDPTGEMSDESLLRTIEEAVYRYSSSGHVLTANEKETVIRRIFHSFR,-0.201
22,HMTTMNSADLIKELEKAGWTLRGVKGSHHIYTHPARGGHLSVPHPKKDLGAGLARQLRKQAGL,0.346
23,HMTTPAAISKIKKLEEAKRLLATTTYSMKEIAVKLKYKSHTHFGMDFKNNTGMTPAEYRKAIKAKREKQMN,0.173
24,HMTTQERVSYSAFINDVETGRVAKVVISGYTIEGTRTNNSSFVTERPYGVDSNLSEVLMQNSVSIEGKA,-0.523
25,HMTTQVNTVKIQLANGYEMTVLTSKTNVKEILEDNNIILENNEKVTPNIDEEISSNKTIKITDKSN,-0.0659
26,HMTTTSGLIKTIQTGRRKLGMDDETYRALLADVSGGKTSSKDLNAYQLKEVLRRMREAGFRS,0.371

row,Sequence,soluble fraction (log2)
1,HMTVDAVALGRRVRHLRKQAGLTLDQLAERTGVSGSHLSLVENARREPRLSLVQRIAEVLGVPVEDL,-0.602
2,HMTVGEKIQYYRKKIGLSQEELGQKMLLSRQTISLWEMDKTLPTVDNLLRLKEIFSVSIDELLSENEPK,-0.257
3,HMTVKNFNDLPGFKNENLAELKAMGITTISELAEALNDGGKIKEIIKNLSGVGPKTAEKWKDAIG,-0.173
4,HMTVKVPDLRGKTLAEMQRILDDAGLKYEINDSTFSRTAIPGTVREVIPAPGSEVKLGRILFIAINGF,0.00881
5,HMTVLIDEQSSDGLLKITVTANTAVKSITIADELLEDKEQLEDYLILVLNKAIARANQVNQTELDAVAK,0.163
6,HMTVPAGIVLSSIRQDGDVLHIRGTAQSTERLNFFRNSFSASWGSPAQNGKRKADPVTGLVDFTISLK,-1.16
7,HMTVPMKILILEDEQRNAMRLIRLLNDIDTTFIIEGPLTNIKEAVDFFQSGKTTDLILADIRL,-0.489
8,HMTVSADQTTADAVIKLIDAIGTVSKNSGSAISAARSGYDALTDAQKKLVTNYNKLTQAEQVFSSLS,-0.165
9,HMTVSLTDVPFVPEILDRLERPELDVLLAILNGATNTFDLAAKTGRSRDELDEVLDRLTTLGLIER,-1.12
10,HMTVTLTTLRNGSTGAQVKTLQRLLSAMDYYNGETDGKFGISTAAAVKAFQRAKRLTVDGIVGKNTWTALL,-0.0337
11,HMTVTMADISQAYNEKRYLTTISLSNTYLTFAKPTTELLSIRYRTYFIIGKYAESLTEIAKL,0.22
12,HMTVTTDITQYFLQENGLLNGPNARQLRQKIGETLNIGYTNGKQLLKRAQQFGLTRDQILTALKK,0.278
13,HMTVVIKVQASQLESWKSSAGTEIKAKLIAVEDEKTYLFVTETGKTIRATAAQLDESSVSRARKLAGL,-0.514
14,HMTYGYFELKAKNLDSLKQFLKGIAQVESIEEENNGLKVFLKNELESEELSEKLAEAKIFVSHLAKKK,-0.617
15,HMTYKPAADFKPSDTSSLKEGMKVEHPKFGFGTVMKMEEVGTERKARINFADFGEKTLLLSFAKLKIHEN,-0.361
16,HMTYNEYPEKEMQDLIDKSISQQEQAASQYGYSLGDYVTARYGFQSESDFREYVQGLAEDYMKEKI,-1.33
17,HMTYQHQSIIHRRTRGAILTAAKELLAESGISGTNMIEIADRAQVSRASLYNHFRDKHEVFLALVES,-0.407
18,HMTYSAWIEKAYSELEKKGITEAELSDALDKRGINLEDLKLMGPDEAVKYQSEVEGVVLELSKSKE,-0.319
19,HMTYSEEEIERDLYVRGTLYQIGDLVENKIDGTSGEIVRRGPNYVQYSDGENFYKAFLHSIQEV,-1.45
20,HMTYTMVAYGSQGDAVRQLQSELNRHGYQLDEDGVFGKKTRAAVRDYQKKNSLRLDGIAGDETWGSLLA,-0.522
21,HMTYTPRAGSLASQVIGFFRHNPDEELLLDDITDKFDATRGNIHTLLAEAVRFKLLARYRNDDGDYVYKPG,-1.6
22,HMVAADTVQVPDVTGKTVADAKQALISAGLQVGTVTAKDGKETANTILETSPAAGTSVDKGSKVNLVYSTG,-0.0646
23,HMVAAITDLPVKSVNGRQMYYYVVRKGETVYSLTHTLGITHDRLVKANRSVEDGLRAGQILYFPVSEFG,-0.00401
24,HMVAELAEMAENKNITSAQLALAWILKQSENIIPIPGTKRIKYLNENIEAVNVDLSKEDVENIENLLRKYP,-0.65
25,HMVAGHLQEKNGQFYAVLSYKDTKGKRRTKWVPTGLMVRGNKKRAEAMLNDIRRKFVPPEQED,0.249
26,HMVAGPDEPLSDREQGVLDLLAEGLSNKAISKQLGISVATVKSHLSNIYGKLQAENRMQAVARARELGLM,-0.386

row,Sequence,soluble fraction (log2)
1,HMVAISNTSGLAGVAYWIQSNIPKGIDIRKDNPGIVTIKNWIDEEYRKGRTTTISEEEMFKLVREYMPEL,-1.12
2,HMVAMGQRVVPLTHLSIDDVRRLLESTYGKDSGIEVTKPGTAAKGVIVTAPRTELDGIVALVKQA,0.0822
3,HMVAMYLRVGISNGRRYLSIVQGYRDQVTKKVRHNTVKSLGYLDDLEKHYPDPIAHFKAVVEEMNKKQALE,0.191
4,HMVANDQILNQYGISDREAEIIGLLIEGLSNQQIAKQLYISPNTVKTHIKNIYAKVGVNNRLQLFSLLK,-0.549
5,HMVANLPFNYKVYAKKGKLYVVISYKDSNGKYKKKWIRTGLDEGTKKKEVNTVADQIAAEYYSSMRLE,0.0398
6,HMVAQQINDFRSERDASTGTLKRPLFDTLRDVISSRAQAYVSATGKPVTVEDLDRIYQAVEAEAKQAL,-0.349
7,HMVDDELTARRRVNLRRIADELGGAAAVARKTQKSVQQISSMLNGTKSFGSKIARDIEPKLGLPLQSLDKE,0.203
8,HMVDDRPVTGTTLIREWQGRAYEVIVQAGHFEFQGQRYQSLSAIAKVITGTVWNGWAFFGLR,-0.444
9,HMVDDTGLPTVLISDGRLLERNLHRLHLDHTWLQRRLEENNIPSIQSLFLLTVDKQHQLYFLKK,-0.277
10,HMVDGTPALTDLKKVSKPGRRHYTGSQEIPRVLNGLGISIVSTSKGIMTGAQARRQKVGGELLAFV,0.22
11,HMVDIIMDLLEAVAQARPADAFIKSLHIQYQERGGLSKKQLQGLYGKAAKTAGIPPGKLATLEAIILKRP,-0.0377
12,HMVDITPDLIRTLLERFGEYGVTKEHIEARIQRHIESILPAQVVQLRKTYNSLKDGMSQPSDWFDI,-1.43
13,HMVDLEINGRQTLQFVANKYGIPVEKLATDLNIPSDRFGEKLGRLRRQYAFTMNDVRKSILKNK,0.215
14,HMVDPELFIWVESSKEPVYHLAYKIELFVHSTDPQDDVPVHRWQVFVDAHNGNILDKFDEVR,-1.65
15,HMVDPRWETPDENLAEQIKSVMPVMWVYDREAKSFVERPAIDFSFSIFERTTLYIYDKDGNEIGFAR,0.0599
16,HMVDQVDKDRFLEALTQLGGSAGNVRLRETLQWEEEVYVIIKDALVKSGTILTGRGRGGSVLLASA,-0.909
17,HMVDSLTIGRRIRQLRTERGMTLEELAAAVGRAPSQLSMIENGRREPKLTLLQAIARALGSTLDALLE,-0.404
18,HMVDVNLLKYYVMESGKSLTDVAAAIGVTPATLHRKMSGESDFYRKEMQDIASYLGLDRDTIDRIFF,-0.892
19,HMVEDIVLTDAQIEFVKQQAKNGLSAFQISEMIWPEMSVKRFSKQHVAVLDFLREYEPAYVHDSE,-1.85
20,HMVEELDVQFIKLTVQGDHPWKNKKIRELSIPWDLLFVLIIRGDKSIIPNGKTTIKDGDIVVVSAPEYRG,-1.5
21,HMVEFLMESTNGMYGIVKEGSSYYVQKGINESSLDYIGGMFMKDKNRFSSYSTALKRLELISGQET,-0.497
22,HMVEGMQFDRGYQSPYFVTNAEKMVAELDNPYILLVEKKISSMKELLPVLEPVAQQGKSLLIISEEVEG,-0.602
23,HMVEGTVKWFNDEKGFGFIEQEGGKDVFVHFSAINGSGRRTLHEGQRVTMEVTQGQKGPQAENVNP,-0.436
24,HMVEIPEFKITTFVNTDNEQIAEFENGFTDKKAEITFNNTKYVFKEKLPDQDGIRTYVYEELHE,-0.438

# Reference: the domain aggregation screens of Martell et al. (2025)
